B1: glmS ribozyme (parent)
chain: AUAAAAGCGCCAGAACUACAGAAAUGUAGUUGACGAGGAGGAGGUUUAUCGAAUUUUCGGCGGAUGCCUCCAAA

What all share (details): with glucosamine-6-phosphate
In series [1] the parent is B1. Nature of the series: self-cleavage kobs at 40 uM GlcN6P; higher = faster cleavage; RNA array. The method in brief:
(§1)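 Sequenced MiSeq chips were the platform: E. coli RNA polymerase transcribed barcoded ribozyme variants on them in situ, and a hybridised Cy3 probe tracked these at 37 °C. After glucosamine-6-phosphate (40 μM to 10 mM) in HEPES/KCl/Mg(OAc)2 buffer was flowed in, tiles were imaged over ~14 h. Signals normalised to baseline and to non-cleaving reference variants were reduced to per-tile medians and fit to one- or two-exponential decays to obtain kobs. kcat and KM were derived through weighted Michaelis–Menten fits across concentrations.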

In series [2] the parent is B1. Nature of the series: self-cleavage kobs at 640 uM GlcN6P; higher = faster cleavage; RNA array. The method in brief: as §1
The variants in series [3] derive from B1. The series can be described thus: self-cleavage kobs at 160 uM GlcN6P; higher = faster cleavage; RNA array. The method in brief: as §1
In series [4] the parent is B1. Nature of the series: self-cleavage kobs at 10000 uM GlcN6P; higher = faster cleavage; RNA array. The method in brief:
as §1

In series [5] the parent is B1. Nature of the series: self-cleavage kobs at 2500 uM GlcN6P; higher = faster cleavage; RNA array. The method in brief: as §1

± gives the standard error. Variants at the floor of the assay were thinned out. Bounds are passed on as bounds.

The values that follow come from the supplement of paper PMC7125110.

On to AUAAAUGCGCCAGAACUACAGAAAUGUAGUUGACGAGGCGGAGGUUCAUCGAAUUUUCGGCGGUUGCCUCCAAA, for which the “self-cleavage kobs at 40 uM GlcN6P” value in series [1] is below 1e-05 s⁻¹.

For the variant AUAAAAGCGCCACAACUACAGAAAUGUAGUUGACGCGGAGGAGGUUUAUCGAAUUUUCGGCGGAUGCCUCGAAA, the “self-cleavage kobs at 40 uM GlcN6P” value in series [1] was below 1e-05 s⁻¹. The “self-cleavage kobs at 640 uM GlcN6P” value in series [2] is below 1e-05 s⁻¹.

In the case of AUAAAAGCGUCAGAACUACAGAAAUGUAGUUGACGAGGAGGAGGUUUAUCGAAUUUUCGGCGGGUGCAUCCAAA, the “self-cleavage kobs at 40 uM GlcN6P” value in series [1] was below 1e-05 s⁻¹.

As for AUAAAAGCGGCAGAACUACAGAAAUGUAGUUGACGAGGAGGAGGUUUAUCGAAUUUUCGGUGGAUGCCUCCAAA, the “self-cleavage kobs at 40 uM GlcN6P” value in series [1] was below 1e-05 s⁻¹. Also, in series [3], the “self-cleavage kobs at 160 uM GlcN6P” value is below 1e-05 s⁻¹. Also, the “self-cleavage kobs at 640 uM GlcN6P” value in series [2] is below 1e-05 s⁻¹. For the same variant, in series [4], the “self-cleavage kobs at 10000 uM GlcN6P” value is below 1e-05 s⁻¹.

As for AUAAAAGCGCCAGAACUACAGAAAUGUAGUUGACUAGGAGGAGGUUUUUCGAAUUUUCGGCGGAUGCCUCCAAA, the “self-cleavage kobs at 40 uM GlcN6P” value in series [1] is below 1e-05 s⁻¹. The “self-cleavage kobs at 160 uM GlcN6P” value in series [3] is below 1e-05 s⁻¹. The “self-cleavage kobs at 640 uM GlcN6P” value in series [2] was below 1e-05 s⁻¹. Also, the “self-cleavage kobs at 10000 uM GlcN6P” value in series [4] was below 1e-05 s⁻¹.

For the variant AUAAAAGCGCCAGAACUACAGAAAUGUAGUUGACGAGGAGGAGGUUUAUCGACUUUUCGGCUGAUGCCUCCAAA, in series [1], the “self-cleavage kobs at 40 uM GlcN6P” value is below 1e-05 s⁻¹. Also, the “self-cleavage kobs at 160 uM GlcN6P” value in series [3] is below 1e-05 s⁻¹. The “self-cleavage kobs at 2500 uM GlcN6P” value in series [5] was below 1e-05 s⁻¹. For the same variant, in series [4], the “self-cleavage kobs at 10000 uM GlcN6P” value was below 1e-05 s⁻¹.

For the variant AUAAAAGAGCCAGAACUACAGAAAUGUAGUUGACGAGGAGGAGGUUUAUCGAAUUUUCGGCGGAUGCCGCCAAA, the “self-cleavage kobs at 40 uM GlcN6P” value in series [1] came to 8.97e-05 ± 2.7e-05 s⁻¹. Further, the “self-cleavage kobs at 640 uM GlcN6P” value in series [2] is 0.000846 ± 0.00027 s⁻¹. Also, the “self-cleavage kobs at 2500 uM GlcN6P” value in series [5] came out at 0.000592 ± 0.00028 s⁻¹. Further, the “self-cleavage kobs at 10000 uM GlcN6P” value in series [4] worked out at 0.000773 ± 0.00027 s⁻¹.

Regarding AUAAAAGCGCCAGAACUACAGAAAUGUAGUUGACGAGGAGGAGGUAUAUCGUAUUUUCGGCGGAUGCCUCCAAA, the “self-cleavage kobs at 40 uM GlcN6P” value in series [1] was below 1e-05 s⁻¹. The “self-cleavage kobs at 160 uM GlcN6P” value in series [3] was below 1e-05 s⁻¹.

For AUAAAAUCGCCAGAACUACAGAAAUGUAGUUGACGAGGAGGAGGUUUAUCGAGUUUUCGGCGGAUGCCGCCAAA, the “self-cleavage kobs at 40 uM GlcN6P” value in series [1] turned out to be 8.14e-05 ± 2.1e-05 s⁻¹. Besides, the “self-cleavage kobs at 640 uM GlcN6P” value in series [2] worked out at 0.000822 ± 0.00023 s⁻¹. Moreover, in series [5], the “self-cleavage kobs at 2500 uM GlcN6P” value amounted to 9.39e-05 ± 3.9e-05 s⁻¹. For the same variant, in series [4], the “self-cleavage kobs at 10000 uM GlcN6P” value is 9.89e-05 ± 2e-05 s⁻¹.

As for AUAAAACCGCCAGAACUACAGAAAUGUAGUUGACGAGUAGGAGGUUUAUCGAAUUUUCGGCGGAUGCCUCCAAA, the “self-cleavage kobs at 40 uM GlcN6P” value in series [1] was below 1e-05 s⁻¹. In addition, the “self-cleavage kobs at 160 uM GlcN6P” value in series [3] is below 1e-05 s⁻¹. In addition, in series [2], the “self-cleavage kobs at 640 uM GlcN6P” value is below 1e-05 s⁻¹. Moreover, in series [4], the “self-cleavage kobs at 10000 uM GlcN6P” value was below 1e-05 s⁻¹.

In the case of AUAAAAGCGCCAGAACUACAGAAAUGUAGUUGACAAGGAGGAGGUUUAUCGAAUUUUCGGCGGAUGCCUCUAAA, the “self-cleavage kobs at 40 uM GlcN6P” value in series [1] is below 1e-05 s⁻¹. In addition, the “self-cleavage kobs at 160 uM GlcN6P” value in series [3] is below 1e-05 s⁻¹. For the same variant, in series [2], the “self-cleavage kobs at 640 uM GlcN6P” value was below 1e-05 s⁻¹. Also, the “self-cleavage kobs at 2500 uM GlcN6P” value in series [5] was below 1e-05 s⁻¹. Also, the “self-cleavage kobs at 10000 uM GlcN6P” value in series [4] was below 1e-05 s⁻¹.

As for AUAAAAGCGCCAGAGCUACAGAAAUGUAGUUGACGAGGAGGACGUUUAUCGAAUUUUCGGCGGAUGCCUCCAAA, the “self-cleavage kobs at 40 uM GlcN6P” value in series [1] was below 1e-05 s⁻¹. Moreover, the “self-cleavage kobs at 160 uM GlcN6P” value in series [3] was below 1e-05 s⁻¹. The “self-cleavage kobs at 640 uM GlcN6P” value in series [2] is below 1e-05 s⁻¹. The “self-cleavage kobs at 2500 uM GlcN6P” value in series [5] was below 1e-05 s⁻¹. Further, in series [4], the “self-cleavage kobs at 10000 uM GlcN6P” value was below 1e-05 s⁻¹.

AUAAAAGCGCCAGAACUACAGAAAUGUAGUUUACGAGGAGGAGGUUUAUCGAGUUUUCGGCGGUUGCCUCCAAA: the “self-cleavage kobs at 40 uM GlcN6P” value in series [1] is below 1e-05 s⁻¹.

With AUAAAAGCGCCAGAACUACAGAAAUGUAGUUGACGAAGAGGAGGUUUAUCAAAUUUUCGGCGGAUGCCUCCAAA, the “self-cleavage kobs at 40 uM GlcN6P” value in series [1] was below 1e-05 s⁻¹. In series [2], the “self-cleavage kobs at 640 uM GlcN6P” value was below 1e-05 s⁻¹. Moreover, the “self-cleavage kobs at 10000 uM GlcN6P” value in series [4] is below 1e-05 s⁻¹.

For AUAAAAGCGCCCGGACUACAGAAAUGUAGUUGACGAGGAGGAGGUUUAUCGAUUUUUCGGCGGAUGGCUCCAAA, the “self-cleavage kobs at 40 uM GlcN6P” value in series [1] came out at 9.17e-05 ± 2.3e-05 s⁻¹. The “self-cleavage kobs at 10000 uM GlcN6P” value in series [4] is 0.00219 ± 0.00062 s⁻¹.

As to AUAAAAGCGCCAGAACUACAGAAAUGUAGUUGACGAGGAGGAGUUUUAUCGGUUUUUCGGCGGAUGCCUCCAAA, the “self-cleavage kobs at 40 uM GlcN6P” value in series [1] was below 1e-05 s⁻¹. In addition, the “self-cleavage kobs at 10000 uM GlcN6P” value in series [4] was below 1e-05 s⁻¹.

With AUAAAAGCGCCAGAACUACAGAAAUGUAGUUGACGAGGAGGGGGUUUAUCGAAUUGUCGGCGGAUGCCUCCAAA, in series [1], the “self-cleavage kobs at 40 uM GlcN6P” value worked out at 0.000474 ± 5.8e-05 s⁻¹. Besides, in series [3], the “self-cleavage kobs at 160 uM GlcN6P” value came out at 0.00171 ± 0.00035 s⁻¹. Also, the “self-cleavage kobs at 640 uM GlcN6P” value in series [2] was 0.00411 ± 0.00062 s⁻¹. Also, the “self-cleavage kobs at 2500 uM GlcN6P” value in series [5] is 0.0067 ± 0.0013 s⁻¹. Further, in series [4], the “self-cleavage kobs at 10000 uM GlcN6P” value is 0.0334 ± 0.0059 s⁻¹.

Turning to AUAAAAGCGCCAGAACUACAGAAAUGUAGUUGACGAGGAGGAGGUUUAUGGAAUUUUCGGCGAAUGCCUGCAAA, the “self-cleavage kobs at 40 uM GlcN6P” value in series [1] turned out to be 0.000105 ± 2.6e-05 s⁻¹. Moreover, the “self-cleavage kobs at 640 uM GlcN6P” value in series [2] came to 0.000198 ± 4.3e-05 s⁻¹. Moreover, in series [5], the “self-cleavage kobs at 2500 uM GlcN6P” value was 9.35e-05 ± 3e-05 s⁻¹. Besides, the “self-cleavage kobs at 10000 uM GlcN6P” value in series [4] was 8.99e-05 ± 1.5e-05 s⁻¹.

In the case of AUAAAAGCGCCAGCACUACAGAAAUGUAGUUGACGAGGAGGAGGUUUAUCGAAUUUUCGGCGGAUGCCUCUAAA, in series [1], the “self-cleavage kobs at 40 uM GlcN6P” value worked out at 0.000147 ± 1.3e-05 s⁻¹. Besides, the “self-cleavage kobs at 160 uM GlcN6P” value in series [3] was determined as 0.000353 ± 3.7e-05 s⁻¹. The “self-cleavage kobs at 640 uM GlcN6P” value in series [2] worked out at 0.000938 ± 9.2e-05 s⁻¹. For the same variant, in series [5], the “self-cleavage kobs at 2500 uM GlcN6P” value amounted to 0.00483 ± 0.00086 s⁻¹. Also, the “self-cleavage kobs at 10000 uM GlcN6P” value in series [4] came out at 0.00794 ± 0.00094 s⁻¹.

As for AUAAAAGCGUCAGCACUACAGAAAUGUAGUUGACGGGGAGAAGGUUUAUCGAAUUUUCGGCGGAUGCCUCCAAA, the “self-cleavage kobs at 40 uM GlcN6P” value in series [1] is below 1e-05 s⁻¹. In addition, the “self-cleavage kobs at 160 uM GlcN6P” value in series [3] was below 1e-05 s⁻¹. Moreover, the “self-cleavage kobs at 640 uM GlcN6P” value in series [2] is below 1e-05 s⁻¹. In addition, in series [5], the “self-cleavage kobs at 2500 uM GlcN6P” value was below 1e-05 s⁻¹.

For AUAAAAGGGCCAGAACUACAGAAAUGUAGUUGACGAGGAGGAGGUUUAUCGAAUUGUCGGCGGAUGCCUUAAAA, the “self-cleavage kobs at 40 uM GlcN6P” value in series [1] was below 1e-05 s⁻¹. In series [3], the “self-cleavage kobs at 160 uM GlcN6P” value is below 1e-05 s⁻¹. Besides, the “self-cleavage kobs at 640 uM GlcN6P” value in series [2] is below 1e-05 s⁻¹. The “self-cleavage kobs at 2500 uM GlcN6P” value in series [5] is below 1e-05 s⁻¹.

Take AUAAAAGCGUCAGAACUACAGAAAUGUAGUUGGCGAGGAGGAGGUUUAUCGAAUUUUCGGCGGAUGCCUUCAAA: the “self-cleavage kobs at 40 uM GlcN6P” value in series [1] is below 1e-05 s⁻¹. Moreover, the “self-cleavage kobs at 10000 uM GlcN6P” value in series [4] is below 1e-05 s⁻¹.

Turning to AUAAAGGCCCCAGAACUACAGAAAUGUAGUUGACGAGGAGGAGGUUUAUCGAAUUUUCGGCGGAUGCCUCCAAA, the “self-cleavage kobs at 40 uM GlcN6P” value in series [1] was below 1e-05 s⁻¹. For the same variant, in series [3], the “self-cleavage kobs at 160 uM GlcN6P” value is below 1e-05 s⁻¹. For the same variant, the “self-cleavage kobs at 10000 uM GlcN6P” value in series [4] was below 1e-05 s⁻¹.

Consider AUAAAAGCGCCAUAACUACAGAAAUGUAGUUGACGAGGAGGAGGUUUAUAGAAUUUUCGGCGGAUGCCUCCAAA, for which, in series [1], the “self-cleavage kobs at 40 uM GlcN6P” value is below 1e-05 s⁻¹.
